Source: US20150246945A1 (JAPANESE FOUNDATION FOR CANCER RESEARCH, published 2015)
Ends that are not written are not given here. * marks the point of attachment. Biotin = O=C1N[C@H]2[C@H](CS[C@H]2CCCCC(=O)*)N1

Experiments:
[1] = target: T1, EpCAM, whole protein on cells (HT-29, MCF-7, 293T transfected with full-length EpCAM plasmid pkk196) or on … (UniProt P16422 24-314, limits assumed); assay: staining of HT-29 spheroids with FITC peptide, fluorescence microscopy
T1 construct: whole, on cells; Used for both cell-surface EpCAM and EpCAM carried on HT-29 exosomes; the assay field says which; also called EpCAM on HT-29; EpCAM-expressing cells
T1 sequence (looked up): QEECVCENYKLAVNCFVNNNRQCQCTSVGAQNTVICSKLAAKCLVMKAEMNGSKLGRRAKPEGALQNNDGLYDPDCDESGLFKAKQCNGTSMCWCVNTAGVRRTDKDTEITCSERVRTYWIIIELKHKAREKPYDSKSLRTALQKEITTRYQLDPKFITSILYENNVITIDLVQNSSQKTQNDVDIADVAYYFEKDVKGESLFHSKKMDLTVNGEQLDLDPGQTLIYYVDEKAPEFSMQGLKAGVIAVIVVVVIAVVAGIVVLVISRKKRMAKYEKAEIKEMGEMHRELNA
Procedure: (§1) The HT-29 cells as EpCAM-expressing cells were cultured by spheroid culture method as follows: 4×10⁵ cells are suspended in 3 ml of D-MEM/F-12 medium (Dulbecco's Modified n Eagle Medium:Nutrient Mixture 12, 1:1 mixture) (Gibco/Life Technologies Inc.) supplemented with 20 ng/ml human EGF (Miltenyi Biotec K.K.), 20 ng/ml human […] (Miltenyi Biotec K.K.), B-27 (Gibco/Life Technologies Inc.), penicillin, and streptomycin and inoculated to EZ-Sphere®, a Petri dish of 3.5 cm in diameter coated with MPC polymer. After static culture for 72 hours, the cells were collected while the medium was suspended by pipetting. The cells were stained with the FITC-modified peptide and observed under a fluorescence microscope. The staining was carried out by adding 4 μM peptide into a McCoy's 5A medium and standing still at room temperature for 30 minutes.
When these control peptides were used at a concentration of 4 μM, no EpCAM staining was observed (data not shown).

[2] = target: T2, purified EpCAM (extracellular domain with myc and His tags at the C terminus, expressed in HEK-293T cells) (UniProt P16422 24-265, limits assumed); assay: fluorescence depolarization, FITC-modified peptide
T2 construct: extracellular domain; also called epithelial cell adhesion molecule; CD326
T2 sequence (looked up): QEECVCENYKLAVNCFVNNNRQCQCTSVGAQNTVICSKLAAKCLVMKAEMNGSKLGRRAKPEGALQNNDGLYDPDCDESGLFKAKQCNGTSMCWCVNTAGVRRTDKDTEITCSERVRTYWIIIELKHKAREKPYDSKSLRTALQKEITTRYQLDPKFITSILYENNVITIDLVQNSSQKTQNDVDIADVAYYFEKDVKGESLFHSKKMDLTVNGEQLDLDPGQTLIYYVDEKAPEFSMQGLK
Procedure: Each FITC-modified EpCAM peptide or control peptide was suspended at a concentration of approximately 100 μM in PBS. After centrifugation, the supernatant was collected and diluted 10-fold, and the absorbance was measured at 495 nm From the measurement value, the molar concentration of the peptide was determined using the formula of Beer-Lambert of the following expression 1: […]
EpCAM is diluted with PBS into several concentrations from 0 until reaching equilibrium (40 nM for the Ep133 peptide), and the FITC-modified peptide whose precise concentration has been measured by the aforementioned method is added to the dilutions thus prepared. The sample was left at a temperature for measurement for 30 minutes or longer and subjected to polarization measurement using a spectrofluorometer FP-6500 (JASCO Corp.) equipped with an automatic polarization measurement unit (JASCO Corp., APH-103). Kd was estimated by curve fitting according to the Hill equation.
The dissociation constants of the EpCAM-binding peptide Ep301 (FIG. 2(D)) disclosed in Patent Literature 2 and Ep301 control (FIG. 2(E)), which was a control peptide derived from Ep301 by the substitution of cysteine at positions 5 and 10 by serine, and a sequence of EpCAM from residue 106 to 119 (FIG. 2(F)) having partial homology to EpCAM-binding peptides were measured similarly.

[3] = target: T1, EpCAM, whole protein on cells (HT-29, …); assay: staining of HT-29 spheroids with FITC peptide
Procedure: as §1
Next, the results of staining using the L3A variant peptide as a control are shown.

[4] = target: T1, EpCAM, whole protein on cells (HT-29, …); assay: pull-down of HT-29 exosomes on peptide-loaded streptavidin beads, Western blot with anti-EpCAM
Procedure: 250 μg of streptavidin-magnetic beads (Dynabeads® M-280 streptavidin, VERITAS Corp.) in TBS containing 2% BSA was added to 20 μg of the biotinylated Ep114 peptide and shaken at room temperature for 30 minutes, followed by washing with TBS. Beads reacted without the peptide were used as a control. The anti-Ep114 antibody was added to the beads in TBST and reacted at room temperature for 1 hour. After washing with TBS, the beads were collected. The collected beads were heated at 95° C. for 5 minutes in a SDS sample buffer. After Western-blotting, the anti-Ep114 antibody was detected using HRP-labeled anti-rabbit antibodies.
The binding to exosomes was confirmed using the Western blot system in the similar method as in the preceding paragraph 1. Specifically, 20 μg of the biotinylated Ep114 peptide, the PE183 peptide, the PE184 peptide, or the PE185 peptide was bound to 250 μg of streptavidin-magnetic beads and then reacted with exosomes isolated from HT-29 cells as EpCAM-positive cells, followed by Western blot to detect the exosomes using anti-EpCAM polyclonal antibodies (see the left panel of FIG. 5C).

[5] = target: T2, purified EpCAM (extracellular domain …); assay: pull-down of EpCAM on peptide-loaded streptavidin magnetic beads, Western blot
[6] = target: T2, purified EpCAM (extracellular domain …); assay: ELISA, biotin peptide on streptavidin plate, purified EpCAM added
Procedure: was immobilized onto an ELISA plate via streptavidin, and purified EpCAM was added thereto in an amount of 0, 10, or 100 ng and reacted. After washing, bound EpCAM was detected using the anti-EpCAM antibody. A biotin-modified peptide PE194 (Ac-[…](biotin)-NH2) of the L3A variant (non-EpCAM-binding variant) was used as a control.

[7] = target: T2, purified EpCAM (extracellular domain …); assay: titer of phages bound to EpCAM-immobilized beads (TALON beads; Protein G beads with Vu-1D9), both conditions
Procedure: (§2) Under Condition 1, each phage (in FIG. 1C, rows 1 and 2 represent the Ep133-displaying phage, rows 3 and 4 represent the Ep301-displaying phage, and rows 5 and 6 represent the phage 447 displaying no peptide) was added at a titer of 1×10¹⁰ to 0.4 mg of TALON® beads immobilized 1 μg of EpCAM (FIG. 1C, rows 1, 3, and 5,indicating with plus sign) or the beads alone (FIG. 1C, rows 2, 4, and 6, indicating with minus sign). After washing with TBST five times, the titers of bound phages were measured.
as §2, with “2, 2.4 μg of anti-EpCAM monoclonal antibody (Vu-1D9, Abcam plc.) was immobilized on Protein G beads, and 3 μg of purified EpCAM was immobilized thereon via the antibody. Each” for “1, each”, “the” for “0.4 mg of TALON®”, “immobilized” for “immobilized 1 μg of”, “5, indicating” for “5,indicating with”, “once,” for “five times,”

B1: Ep114 control peptide in which cysteine at positions 5 and 10 is substituted by serine (peptide)
peptide: KHLQSVRNISWS
modifications: also: FITC-labeled, position not given here
binding result [1]: no binding (tested: 0.4 µM; also 4 µM (data not shown))

B2: Ep133 control (peptide)
peptide: EHLHSLGSLSWP
modifications: also: FITC-modified, position not given here
notes: Ep133 with cysteine at positions 5 and 10 substituted by serine
binding result [1]: no binding (tested: 0.4 µM; also 4 µM (data not shown)) | binding result [2]: no binding

B3: L3A variant peptide of Ep114, FITC-labeled (peptide)
peptide: KHAQCVRNICWS
modifications: not fully specified (bridges); cysteine pairing not given here; also: FITC-labeled, position not given here
notes: Free labeled peptide used as a control in cell staining; also called L3A control labeled peptide; control peptide
binding result [3]: no binding

B4: PE183 peptide (peptide)
peptide: Ac-KHLQCVRNICWSPPPPPPKK(Biotin)-NH2
modifications: not fully specified (bridges); printed as Ac-KHLQCVRNICWSPPPPPPKK(biotin)-NH2; cysteine pairing not given here
binding result [4]: binds | binding result [5]: binds

B5: biotin-modified peptide PE194 of the L3A variant (peptide)
peptide: Ac-KHAQCVRNICWSPPPPPPKK(Biotin)-NH2
modifications: cysteine pairing not given here
notes: L3A control of PE183
binding result [6]: no binding (tested: 100 ng EpCAM)

B6: Ep133-displaying phage (peptide)
chain: EHLHCLGSLCWP
modifications: not fully specified (bridges); cysteine pairing not given here; also: displayed on phage
notes: also called cloned phage displaying Ep133; not shown: fusion and linker not described
fold ability to bind compared with Ep301-displaying phage [7]: ≥ 10 times
